Test results reported in paper PMC9800282 (Nature Medicine, 2022).

Tests used:
[1] = target: T1, recombinant human αvβ3 integrin (human, UniProt P06756 31-1048; P05106 27-718); assay: SPR; Biacore T200; LNA043 (~3,000 RU), FN1 or VTN (~500 RU) amine-coupled to CM5; integrins as analytes 0.6–10 μM, single-cycle kinetics, 37 °C, 1× HBS-N, 0.005% Tween 20, 1 mM MgCl2, 1 mM CaCl2, 2 mM MnCl2; 1:1 binding fit; details: both partners purified
T1 construct: integrin αv subunit, human, recombinant; integrin β3 subunit, human, recombinant; also called rhαvβ3; integrin αvβ3; source: bought: R&D Systems (co-IP)

[2] = target: T2, recombinant human α5β1 integrin (human, UniProt P08648 42-1049; P05556 21-728); assay: as above; details: both partners purified
T2 construct: integrin α5 subunit, human, recombinant; integrin β1 subunit, human, recombinant; also called rhα5β1; integrin α5β1; source: bought: R&D Systems (co-IP)

T1 sequence (P06756 31-1048, chain 1 of 2): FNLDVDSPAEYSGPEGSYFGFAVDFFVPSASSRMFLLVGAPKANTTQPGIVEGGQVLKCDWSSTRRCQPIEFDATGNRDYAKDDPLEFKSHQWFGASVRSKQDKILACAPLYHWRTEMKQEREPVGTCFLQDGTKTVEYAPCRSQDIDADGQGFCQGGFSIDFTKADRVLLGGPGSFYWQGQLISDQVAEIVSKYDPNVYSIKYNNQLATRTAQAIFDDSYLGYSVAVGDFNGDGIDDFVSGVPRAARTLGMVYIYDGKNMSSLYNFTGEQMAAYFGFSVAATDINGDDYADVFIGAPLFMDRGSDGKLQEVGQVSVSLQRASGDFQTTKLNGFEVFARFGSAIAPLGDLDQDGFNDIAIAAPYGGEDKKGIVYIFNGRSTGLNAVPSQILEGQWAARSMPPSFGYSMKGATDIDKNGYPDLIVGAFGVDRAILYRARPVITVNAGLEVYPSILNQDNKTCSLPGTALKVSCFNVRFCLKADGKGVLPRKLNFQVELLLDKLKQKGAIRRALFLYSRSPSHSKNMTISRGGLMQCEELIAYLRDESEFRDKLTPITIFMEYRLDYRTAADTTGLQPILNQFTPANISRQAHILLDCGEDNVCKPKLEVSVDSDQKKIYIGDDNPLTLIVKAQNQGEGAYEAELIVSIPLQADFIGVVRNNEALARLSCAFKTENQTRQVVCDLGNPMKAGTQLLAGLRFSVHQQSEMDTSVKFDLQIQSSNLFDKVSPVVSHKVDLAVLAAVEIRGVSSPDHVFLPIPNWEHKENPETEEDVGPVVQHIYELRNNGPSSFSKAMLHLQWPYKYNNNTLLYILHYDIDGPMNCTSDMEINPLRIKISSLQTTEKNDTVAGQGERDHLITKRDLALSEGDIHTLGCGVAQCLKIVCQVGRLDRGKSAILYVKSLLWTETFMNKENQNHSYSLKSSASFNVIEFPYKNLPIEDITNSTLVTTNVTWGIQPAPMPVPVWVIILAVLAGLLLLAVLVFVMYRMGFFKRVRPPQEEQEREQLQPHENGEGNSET
T1 sequence (P05106 27-718, chain 2 of 2): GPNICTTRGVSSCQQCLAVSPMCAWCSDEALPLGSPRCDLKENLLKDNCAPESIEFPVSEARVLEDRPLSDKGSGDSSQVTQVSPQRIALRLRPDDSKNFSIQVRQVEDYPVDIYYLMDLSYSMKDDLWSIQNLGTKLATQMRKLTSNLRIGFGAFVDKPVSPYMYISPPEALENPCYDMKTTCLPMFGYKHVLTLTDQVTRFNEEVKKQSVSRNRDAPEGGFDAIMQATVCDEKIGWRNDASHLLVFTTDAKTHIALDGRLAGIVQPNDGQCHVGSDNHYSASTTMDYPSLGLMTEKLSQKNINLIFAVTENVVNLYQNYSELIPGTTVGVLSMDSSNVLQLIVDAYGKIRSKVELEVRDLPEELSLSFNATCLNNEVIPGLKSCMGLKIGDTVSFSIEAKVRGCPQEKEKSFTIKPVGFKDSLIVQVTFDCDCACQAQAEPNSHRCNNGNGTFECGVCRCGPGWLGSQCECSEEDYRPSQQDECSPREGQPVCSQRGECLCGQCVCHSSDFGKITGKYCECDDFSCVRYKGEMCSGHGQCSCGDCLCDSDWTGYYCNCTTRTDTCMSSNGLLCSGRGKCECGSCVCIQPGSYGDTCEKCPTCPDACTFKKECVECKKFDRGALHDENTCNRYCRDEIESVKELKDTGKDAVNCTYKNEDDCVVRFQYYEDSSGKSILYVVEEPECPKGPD

Kd [1]: ~7.9 µM | Kd [2]: ~1.5 µM
B1: LNA043 (domain or fragment)
chain: IPAECTTIYNRGEHTSGMYAIRPSNSQVFHVYCDVISGSPWTLIQHRIDGSQNFNETWENYKYGFGRLDGEFWLGLEKIYSIVKQSNYVLRIELEDWKDNKHYIEYSFYLGNHETNYTLHLVAITGNVPNAIPENKDLVFSTWDHKAKGHFNCPEGYSGGWWWHDECGENNLNGKYNKPRAQSKPERRRGLSWKSQNGRLYSIKSTKMLIHPTDSESFE
